Data set [1] relates to HeLa Kyoto. In words: solubility in G1/S (NP-40 vs SDS abundance) (log2 ratio); higher = more soluble. The following applies: cell cycle stage: G1/S.
In data set [2] the test system is HeLa Kyoto. The data set is described as follows: melting temperature (median over replicates), in situ; higher = more thermally stable.
Data set [3] deals with HeLa Kyoto. The data set is described as follows: solubility change mitosis vs G1/S (difference of NP-40 vs SDS log2 ratios) (log2 ratio difference); higher = more soluble in mitosis.
For data set [4], the system named is HeLa Kyoto. The data set is described as follows: thermal stability score vs G1/S (z-score of summed log2 fold changes over temperatures); higher = more thermally stable than in G1/S.
The mark [5] stands for this setting: cell cycle stage: early G1 (4.5 h after nocodazole release).
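Throughout, for melting temperature (median over replicates), in situ: HeLa Kyoto cells synchronized by double thymidine or nocodazole block, proteins quantified by TMT10plex mass spectrometry, three independent biological replicates.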
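Throughout, for solubility change mitosis vs G1/S (difference of NP-40 vs SDS log2 ratios): synchronized HeLa Kyoto cells (double thymidine block for G1/S, nocodazole release for mitosis), protein amounts in NP-40 versus SDS lysates quantified by mass spectrometry, three biological replicates.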
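Throughout, for solubility in G1/S (NP-40 vs SDS abundance): HeLa Kyoto cells arrested at G1/S by double thymidine block, proteins quantified by TMT10plex mass spectrometry in mild NP-40 versus SDS extracts, three biological replicates.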
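Throughout, for thermal stability score vs G1/S (z-score of summed log2 fold changes over temperatures): synchronized HeLa Kyoto cells, proteins quantified by TMT10plex mass spectrometry, three biological replicates, mitosis taken 0.5 h after nocodazole release, G1/S directly after double thymidine block.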

For “MEAVKTFNSELYSLNDYKPPISKAKMTQITKAAIKAIKFYKHVVQSVEKFIQKCKPEYKVPGLYVIDSIVRQSRHQFGQEKDVFAPRFSNNIISTFQNLYRCPGDDKSKIVRVLNLWQKNNVFKSEIIQPLLDMAAGIPPPVVTPVLASTTTAMSNTPGTPVTPVTPANVVQGLPDPWVSQITNTDTLAAVAQILQSPQGQQLQQLIQTLQIQQQKPQPSILQALDAGLVVQLQALTAQLTAAAAAANTLTPLEQGVSFNKKLMDRFDFGEDSEHSEEPKKEIPASQLSHVSESVNNSIFHQIAEQLQQQNLEHLRQQLLEQQQPQKATPQDSQEGTFGSEHSASPSQGSSQQHFLEPEVNLDDSIDIQQQDMDIDEGQDGVEEEVFEQEAKKVAVRSRSRTHSRSRSRSPRKRRSRSRSGSRKRKHRKRSRSRSRERKRKSSRSYSSERRAREREKERQKKGLPPIRSKTLSVCSTTLWVGQVDKKATQQDLTNLFEEFGQIESINMIPPRGCAYVCMVHRQDAFRALQKLSSGSYKIGSKVIKIAWALNKGVKTEYKQFWDVDLGVTYIPWEKVKVDDLEGFAEGGMIDQETVNTEWETVKSSEPVKETVQTTQSPTPVEKETVVTTQAEVFPPPVAMLQIPVAPAVPTVSLVPPAFPVSMPVPPPGFSPIPPPPFLRASFNPSQPPPGFMPPPVPPPVVPPPTIPPVVPTSLVQPSLSMTPETVKDVGFGSLVIPGGSVASNLATSALPAGNVFNAPTKQAEPEEKVPHLIDHQISSGENTRSVIPNDISSNAAILGGQPPNVTSNSGILGVQRPNVSSNSEILGVRPSNVSSSSGIIAAQPPNILNNSGILGIQPPSVSNSSGLLGVLPPNIPNNSGLVGVQPPNVPNTPGLLGTQPPAGPQNLPPLSIPNQRMPTMPMLDIRPGLIPQAPGPRFPLIQPGIPPQRGIPPPSVLDSALHPPPRGPFPPGDIFSQPERPFLAPGRQSVDNVTNPEKRIPLGNDNIQQEGDRDYRFPPIETRESISRPPPVDVRDVVGRPIDPREGPGRPPLDGRDHFGRPPVDIRENLVRPGIDHLGRRDHFGFNPEKPWGHRGDFDEREHRVLPVYGGPKGLHEERGRFRSGNYRFDPRSGPWNRGFGQEVHRDFDDRRRPWERQRDRDDRDFDFCREMNGNRLGRDRIQNTWVPPPHARVFDYFEGATSQRKGDNVPQVNGENTERHAQPPPIPVQNDPELYEKLTSSNEINKEKSDTVADIESEPVVESTETEGT [SCAF8]”, the “solubility in G1/S (log2)” value in the data set with HeLa Kyoto [1] is -0.11. The values for the melting temperature in the data set with HeLa Kyoto [2] (cell cycle stage: G1/S) and with HeLa Kyoto [2] (cell cycle stage: mitosis) were 48.6 °C and 49.3 °C, respectively. In the data set on HeLa Kyoto [3], the “solubility change mitosis (log2)” value is -0.0284. Further, the figures for the thermal stability score with HeLa Kyoto [4] (setting [5]) and with HeLa Kyoto [4] (cell cycle stage: mitosis) were 0.536 and 0.448, respectively.

For “MAAFLKMSVSVNFFRPFTRFLVPFTLHRKRNNLTILQRYMSSKIPAVTYPKNESTPPSEELELDKWKTTMKSSVQEECVSTISSSKDEDPLAATREFIEMWRLLGREVPEHITEEELKTLMECVSNTAKKKYLKYLYTKEKVKKARQIKKEMKAAAREEAKNIKLLETTEEDKQKNFLFLRLWDRNMDIAMGWKGAQAMQFGQPLVFDMAYENYMKRKELQNTVSQLLESEGWNRRNVDPFHIYFCNLKIDGALHRELVKRYQEKWDKLLLTSTEKSHVDLFPKDSIIYLTADSPNVMTTFRHDKVYVIGSFVDKSMQPGTSLAKAKRLNLATECLPLDKYLQWEIGNKNLTLDQMIRILLCLKNNGNWQEALQFVPKRKHTGFLEISQHSQEFINRLKKAKT [TRMT10C]”, the “solubility in G1/S (log2)” value with HeLa Kyoto [1] was -0.0196. For the same substance, the melting temperature in the data set with HeLa Kyoto [2] (cell cycle stage: G1/S) came to 51.3 °C; in the data set on HeLa Kyoto [2] (cell cycle stage: mitosis), 51.9 °C. Moreover, the “solubility change mitosis (log2)” value in the data set on HeLa Kyoto [3] was -0.114. The thermal stability score turned out to be 0.276 in the data set with HeLa Kyoto [4] (setting [5]) and 0.67 with HeLa Kyoto [4] (cell cycle stage: mitosis).

For the substance GOLGB1, the “solubility in G1/S (log2)” value in the data set on HeLa Kyoto [1] came to 0.115. Besides, the melting temperature came to 48.6 °C with HeLa Kyoto [2] (cell cycle stage: G1/S) and 49.9 °C in the data set on HeLa Kyoto [2] (cell cycle stage: mitosis). In the data set on HeLa Kyoto [3], the “solubility change mitosis (log2)” value was -0.0748. Moreover, the thermal stability score in the data set on HeLa Kyoto [4] (setting [5]) amounted to 1.43; in the data set on HeLa Kyoto [4] (cell cycle stage: mitosis) it was 4.58.

Regarding “MPPRRSIVEVKVLDVQKRRVPNKHYVYIIRVTWSSGSTEAIYRRYSKFFDLQMQMLDKFPMEGGQKDPKQRIIPFLPGKILFRRSHIRDVAVKRLIPIDEYCKALIQLPPYISQCDEVLQFFETRPEDLNPPKEEHIGKKKSGGDQTSVDPMVLEQYVVVANYQKQESSEISLSVGQVVDIIEKNESGWWFVSTAEEQGWVPATCLEGQDGVQDEFSLQPEEEEKYTVIYPYTARDQDEMNLERGAVVEVIQKNLEGWWKIRYQGKEGWAPASYLKKNSGEPLPPKPGPGSPSHPGALDLDGVSRQQNAVGREKELLSSQRDGRFEGRPVPDGDAKQRSPKMRQRPPPRRDMTIPRGLNLPKPPIPPQVEEEYYTIAEFQTTIPDGISFQAGLKVEVIEKNLSGWWYIQIEDKEGWAPATFIDKYKKTSNASRPNFLAPLPHEVTQLRLGEAAALENNTGSEATGPSRPLPDAPHGVMDSGLPWSKDWKGSKDVLRKASSDMSASAGYEEISDPDMEEKPSLPPRKESIIKSEGELLERERERQRTEQLRGPTPKPPGVILPMMPAKHIPPARDSRRPEPKPDKSRLFQLKNDMGLECGHKVLAKEVKKPNLRPISKSKTDLPEEKPDATPQNPFLKSRPQVRPKPAPSPKTEPPQGEDQVDICNLRSKLRPAKSQDKSLLDGEGPQAVGGQDVAFSRSFLPGEGPGRAQDRTGKQDGLSPKEISCRAPPRPAKTTDPVSKSVPVPLQEAPQQRPVVPPRRPPPPKKTSSSSRPLPEVRGPQCEGHESRAAPTPGRALLVPPKAKPFLSNSLGGQDDTRGKGSLGPWGTGKIGENREKAAAASVPNADGLKDSLYVAVADFEGDKDTSSFQEGTVFEVREKNSSGWWFCQVLSGAPSWEGWIPSNYLRKKP [SH3PXD2B]”, in the data set on HeLa Kyoto [1], the “solubility in G1/S (log2)” value is -0.0158. The results for the melting temperature in the data set with HeLa Kyoto [2] (cell cycle stage: G1/S) and with HeLa Kyoto [2] (cell cycle stage: mitosis) were 48.9 °C and 49.9 °C, respectively. For the same substance, in the data set on HeLa Kyoto [3], the “solubility change mitosis (log2)” value was -0.129. For the same substance, the thermal stability score in the data set on HeLa Kyoto [4] (setting [5]) is -0.513; in the data set with HeLa Kyoto [4] (cell cycle stage: mitosis), 0.253.

With “MSDYSTGGPPPGPPPPAGGGGGAGGAGGGPPPGPPGAGDRGGGGPGGGGPGGGSAGGPSQPPGGGGPGIRKDAFADAVQRARQIAAKIGGDAATTVNNSTPDFGFGGQKRQLEDGDQPESKKLASQGDSISSQLGPIHPPPRTSMTEEYRVPDGMVGLIIGRGGEQINKIQQDSGCKVQISPDSGGLPERSVSLTGAPESVQKAKMMLDDIVSRGRGGPPGQFHDNANGGQNGTVQEIMIPAGKAGLVIGKGGETIKQLQERAGVKMILIQDGSQNTNVDKPLRIIGDPYKVQQACEMVMDILRERDQGGFGDRNEYGSRIGGGIDVPVPRHSVGVVIGRSGEMIKKIQNDAGVRIQFKQDDGTGPEKIAHIMGPPDRCEHAARIINDLLQSLRSGPPGPPGGPGMPPGGRGRGRGQGNWGPPGGEMTFSIPTHKCGLVIGRGGENVKAINQQTGAFVEISRQLPPNGDPNFKLFIIRGSPQQIDHAKQLIEEKIEGPLCPVGPGPGGPGPAGPMGPFNPGPFNQGPPGAPPHAGGPPPHQYPPQGWGNTYPQWQPPAPHDPSKAAAAAADPNAAWAAYYSHYYQQPPGPVPGPAPAPAAPPAQGEPPQPPPTGQSDYTKAWEEYYKKIGQQPQQPGAPPQQDYTKAWEEYYKKQAQVATGGGPGAPPGSQPDYSAAWAEYYRQQAAYYGQTPGPGGPQPPPTQQGQQQAQ [KHSRP]”, the “solubility in G1/S (log2)” value in the data set on HeLa Kyoto [1] is 0.523. In addition, the values for the melting temperature with HeLa Kyoto [2] (cell cycle stage: G1/S) and in the data set on HeLa Kyoto [2] (cell cycle stage: mitosis) were 55.4 °C and 55.7 °C, respectively. Besides, the “solubility change mitosis (log2)” value in the data set on HeLa Kyoto [3] is 0.0471. The thermal stability score with HeLa Kyoto [4] (setting [5]) turned out to be 1.92; in the data set with HeLa Kyoto [4] (cell cycle stage: mitosis), 1.64.

For the substance FAM98A, in the data set on HeLa Kyoto [1], the “solubility in G1/S (log2)” value was -0.0181. Also, the melting temperature in the data set with HeLa Kyoto [2] (cell cycle stage: G1/S) was 53.4 °C; in the data set on HeLa Kyoto [2] (cell cycle stage: mitosis), 51.3 °C. Also, the “solubility change mitosis (log2)” value with HeLa Kyoto [3] came to 0.324. The thermal stability score is -1.25 in the data set with HeLa Kyoto [4] (setting [5]) and -0.239 in the data set with HeLa Kyoto [4] (cell cycle stage: mitosis).

For ZNF638, in the data set with HeLa Kyoto [1], the “solubility in G1/S (log2)” value is -0.709. Also, the melting temperature in the data set on HeLa Kyoto [2] (cell cycle stage: G1/S) turned out to be 48.1 °C; in the data set with HeLa Kyoto [2] (cell cycle stage: mitosis), 50.2 °C. Moreover, the “solubility change mitosis (log2)” value in the data set on HeLa Kyoto [3] turned out to be 0.363. Besides, the figures for the thermal stability score in the data set on HeLa Kyoto [4] (setting [5]) and in the data set on HeLa Kyoto [4] (cell cycle stage: mitosis) were 1.39 and 4.74, respectively.

The record behind these values is the supplement of paper PMC5998384.
